Assay results from US20210347894A1 (JIANGSU HANSOH PHARMACEUTICAL GROUP, published 2021).

T1: human 4Ig-B7H3 antigen (SinoBiological cat#11188-H08H) (human, UniProt Q5ZPR3 29-461)
T1 construct: Commercial product; The entry as printed is the B7H3 extracellular region (4Ig form) followed by a His-tag; also called Human 41g-B7H3; human B7H3 antigen for detection
T1 sequence: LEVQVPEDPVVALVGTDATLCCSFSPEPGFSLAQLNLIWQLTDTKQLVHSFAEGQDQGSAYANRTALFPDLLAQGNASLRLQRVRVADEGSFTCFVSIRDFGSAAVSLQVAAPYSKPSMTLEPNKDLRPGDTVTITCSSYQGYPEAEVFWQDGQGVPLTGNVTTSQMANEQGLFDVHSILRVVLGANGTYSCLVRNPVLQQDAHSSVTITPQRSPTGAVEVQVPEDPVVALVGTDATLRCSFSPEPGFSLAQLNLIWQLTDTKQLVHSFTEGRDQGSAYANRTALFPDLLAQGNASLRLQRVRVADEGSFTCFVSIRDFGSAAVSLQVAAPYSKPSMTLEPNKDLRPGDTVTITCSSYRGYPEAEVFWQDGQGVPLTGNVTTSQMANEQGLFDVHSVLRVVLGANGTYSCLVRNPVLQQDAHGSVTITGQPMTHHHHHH

T2: human 2Ig-B7H3 antigen (R&D cat#1949-B3-050/CF) (human, UniProt Q5ZPR3 29-245)
T2 construct: Commercial product; The entry as printed is the B7H3 extracellular region (2Ig form) followed by a His-tag; also called human B7H3 antigen for screening and detection
T2 sequence: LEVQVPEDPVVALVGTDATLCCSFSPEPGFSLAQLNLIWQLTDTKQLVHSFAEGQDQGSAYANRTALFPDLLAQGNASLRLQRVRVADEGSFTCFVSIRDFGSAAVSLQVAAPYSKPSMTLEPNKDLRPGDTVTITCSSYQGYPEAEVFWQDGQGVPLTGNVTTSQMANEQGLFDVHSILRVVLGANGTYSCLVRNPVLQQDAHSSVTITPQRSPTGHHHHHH

B1: h1702 antibody (antibody, human IgG1, lambda)
heavy: not shown
light: QTVVTQEPSFSVSPGGTVTLTCGLSSGSVSTSHYPSWYQQTPGQAPRMLIYNTNTRSSGVPDRFSGSILGNKAALTITGAQADDESDYYCAIHVDRDIWVFGGGTKLTVLGQPKANPTVTLFPPSSEELQANKATLVCLISDFYPGAVTVAWKADGSPVKAGVETTKPSKQSNNKYAASSYLSLTPEQWKSHRSYSCQVTHEGSTVEKTVAPTECS
notes: Fully human IgG1/lambda full-length antibody from a phage library, expressed in HEK293E cells; also called B7H3 antibody h1702; anti-B7H3 antibody
B2: ADC-2 (antibody 1702DS conjugated with compound 5-A, formula FADC-2, n=7.24) (antibody, human IgG1, lambda)
heavy: not shown
light: DTVVTQEPSFSVSPGGTVTLTCGLSSGSVSTSHYPSWYQQTPGQAPRMLIYNTNTRSSGVPDRFSGSILGNKAALTITGAQADDESDYYCAIHVDRDIWVFGGGTKLTVLGQPKANPTVTLFPPSSEELQANKATLVCLISDFYPGAVTVAWKADGSPVKAGVETTKPSKQSNNKYAASSYLSLTPEQWKSHRSYSCQVTHEGSTVEKTVAPTEC
modifications: linker-drug compound 5-A (maleimide-GGFG-exatecan analog) coupled after TCEP reduction of the antibody's disulfide bonds; average n=7.24 per antibody; positions not given
notes: Antibody-drug conjugate; also called B7H3-ADC

Assays:
[1] = target: T1, human 4Ig-B7H3 antigen (SinoBiological …); experiment: SPR (Biacore T200), antibody captured on Protein A chip, antigen flowed over, 1:1 Langmuir fit
Source text: (§1) A biosensor chip Protein A (Cat.#29127556, GE) was used to affinity capture a certain amount of antibody/ADC to be tested. Series diluted human 2Ig-B7H3 antigen (Cat.#1949-B3-050/CF, R&D) and human 4Ig-B7H3 antigen (Cat.#11188-H08H, Sino Biological) were flowed through the surface of the chip. Real-time reaction signal was detected by using Biacore instrument (Biacore T200, GE) to obtain the association and dissociation curves. After completion of each cycle of dissociation, the biochip was washed and regenerated with glycine-hydrochloric acid regeneration solution (pH 1.5) (Cat.# BR-1003-54, GE). The buffer used in the experiment was HBS-EP buffer solution (pH 7.4) (Cat.# BR-1001-88, GE).
(§2) The experimental data was fitted with BIAevaluation version 4.1 GE software in a (1:1) Langmuir model to obtain affinity values.

[2] = target: T2, human 2Ig-B7H3 antigen (R&D …); experiment: as above
Source text: as §1, §2

[3] = target: T1, human 4Ig-B7H3 antigen (SinoBiological …); experiment: SPR (Biacore T200), ADC captured on Protein A chip, antigen flowed over, 1:1 Langmuir fit
Source text: as §1, §2

Binder | Kd [1] | Kd [2] | Kd [3]
B1 | 8.55 nM | 797 nM | –
B2 | – | – | 7.55 nM
